Assay results from paper PMC7794297.

Substrate: OC[C@H]1O[C@@H](O)[C@H](O)[C@@H](O)[C@@H]1O
Test: GOx activity assay, glucose oxidase-horseradish peroxidase coupled system with o-dianisidine
Assay type: biochemical, Aspergillus niger
Conditions: other: control, glucose conversion; 37.0 °C

B1: glucose oxidase (GOx) (Aspergillus niger) (protein)
chain: LPHYIRSNGIEASLLTDPKDVSGRTVDYIIAGGGLTGLTTAARLTENPNISVLVIESGSYESDRGPIIEDLNAYGDIFGSSVDHAYETVELATNNQTALIRSGNGLGGSTLVNGGTWTRPHKAQVDSWETVFGNEGWNWDNVAAYSLQAERARAPNAKQIAAGHYFNASCHGVNGTVHAGPRDTGDDYSPIVKALMSAVEDRGVPTKKDFGCGDPHGVSMFPNTLHEDQVRSDAAREWLLPNYQRPNLQVLTGQYVGKVLLSQNGTTPRAVGVEFGTHKGNTHNVYAKHEVLLAAGSAVSPTILEYSGIGMKSILEPLGIDTVVDLPVGLNLQDQTTATVRSRITSAGAGQGQAAWFATFNETFGDYSEKAHELLNTKLEQWAEEAVARGGFHNTTALLIQYENYRDWIVNHNVAYSELFLDTAGVASFDVWDLLPFTRGYVHILDKDPYLHHFAYDPQYFLNELDLLGQAAATQLARNISNSGAMQTYFAGETIPGDNLAYDADLSAWTEYIPYHFRPNYHGVGTCSMMPKEMGGVVDNAARVYGVQGLRVIDGSIPPTQMSSHVMTVFYAMALKISDAILEDYASMQ
notes: purchased Sigma Aldrich
Km: 15 ± 2 mM | kcat: 0.00233 ± 0.00017 s⁻¹
